Experiment [1] concerns C57Bl/6J mice. In words: Grip strength using a grip strength meter. The experiment is classed as in vivo, mouse. The note with it: at 110 weeks; vs IgG control antibody. As for the experimental part:
C57Bl/6J mice are randomised to receive either X203 or IgG control antibody at a dose of 40m/kg via IP injection every 3 weeks from age 55 weeks to age 110 weeks.
At 110 weeks, mice are analysed for grip strength using a grip strength meter. Reduced grip strength is a robust marker of ageing-associated frailty in mice (see Fischer et al., Aging (2016) 8: 2370-2391, hereby incorporated by reference in its entirety).
Mice grip a wire mesh attached to the meter with both forelimbs, and are then gently pulled by the tail in a horizontal plane parallel to the base plate of the meter. Grip strength is recorded as the maximum force registered.

The subject of experiment [2] is C57Bl/6J mice. Nature of the experiment: Ageing pathways in tissues of old mice receiving X203, western blot and densitometry. The note with it: 110-week old mice. The experiment is classed as in vivo, mouse. The method, then:
The same results are observed in the gastrocnemii (FIGS. 45 and 46), solei (FIGS. 47 and 48) and abdominal fat (FIGS. 49 and 50) of old mice treated with X203.
Male and female C57Bl/6J mice aged 46 weeks were purchased from the Jackson Laboratory. Mice were randomised on a 1:1 basis to receive either 40 mg/kg of X203 or an isotype control IgG antibody (11E10), every 3 weeks (IP), starting from 55 weeks of age. Mice were sacrificed at 110 weeks of age for blood and tissues collection. 12 weeks old male and female C57Bl/6J mice that were used as control were purchased from Invivos (Singapore).
Western blots were carried out on total protein extracts from primary human cardiac fibroblasts (HCFs), hepatic stellate cells (HSCs), hepatocytes, livers, gastrocnemii, solei, and abdominal fats. Cell or tissue lysates were homogenized in RIPA Lysis and Extraction Buffer (89901, Thermo Scientific) containing protease and phosphatase inhibitors (Roche). Protein lysates were separated by SDS-PAGE, transferred to PVDF membranes, blocked for 1 h with 3% BSA, and incubated overnight with either phospho-ACC (11818, CST), ACC (3676, CST), phospho-AMPK (2535, CST), AMPK (5832, CST), phospho-ERK1/2 (4370, CST), ERK1/2 (4695, CST), GAPDH (2118, CST), phospho-LKB1 S428 (3482, CST), phospho-LKB1 (S325), LKB1 (3047, CST), (phospho-mTOR (2971, CST), mTOR (2972, CST), p16 (ab232402, Abcam), p21 (64016, CST), phospho-p70S6K (9205, CST), p70S6K (2708, CST), phospho-S6 ribosomal protein (4858, CST), or S6 ribosomal protein (2217, CST). All primary antibodies are diluted 1:1000 in 1% BSA. Protein bands were visualized using the ECL detection system (Pierce) with anti-rabbit HRP (1:2000 in 3% BSA, 7074, CST).

The mark [3] stands for this setting: compared with the liver results.

B1: X203: mouse anti-mouse IL-11 IgG antagonist antibody; VH SEQ ID NO:22, VL SEQ ID NO:23 (antibody, V domains shown)
VH: EVQLQQSGPELVKPGASVKIPCKASGYTFTDYNMDWVKQSHGKSLEWIGDINPHNGGPIYNQKFTGKATLTVDKSSSTAYMELRSLTSEDTAVYYCARGELGHWYFDVWGTGTTVTVSS
VL: DIVLTQSPASLAVSLGQRATISCRASKSVSTSGYSYIHWYQQKPGQPPKLLIYLASNLDSGVPARFSGSGSGTDFTLNIHPVEEEDAATYYCQHSRDLPPTFGGGTKLEIK
Turning to B1, in the experiment on C57Bl/6J mice [1], the grip strength result was “greater”. Further, in the experiment on C57Bl/6J mice [2] (setting [3]), the “ERK/LKB1/mTORC1 activity, AMPK activity, p16 and p21 expression in gastrocnemii” value is recorded as “same results”; the “ERK/LKB1/mTORC1 activity, AMPK activity, p16 and p21 expression in solei” value is recorded as “same results”. Further, in the experiment on C57Bl/6J mice [2] (vs IgG control), the “AMPK activity in livers” value is recorded as “more”; the “ERK/LKB1/mTORC1 activity in livers” value is “less”; the “expression of key senescence markers (p16 and p21) in livers” value was “less”.

Source of the values: patent US20230399393A1, “METHODS TO EXTEND HEALTH-SPAN AND TREAT AGE-RELATED DISEASES” (National University of Singapore, priority 2020, published 2023).
